Measured values taken from patent publication US10273304B2, “Biomarker profiles for predicting outcomes of cancer therapy with ERBB3 inhibitors and/or chemotherapies” (Merrimack Pharmaceuticals, Inc., priority 2013, dated 2019).

What was measured:
[1] = tested on: advanced, platinum-resistant ovarian cancer; test: Clinical trial, ovarian cancer: paclitaxel with or without MM-121; format: in vivo, human; settings: for HR (PFS, treatment vs control): paclitaxel+MM-121 vs paclitaxel, data at 60 weeks
Experimental: A clinical trial was performed that was designed to allow, inter alia, determination of associations between biomarker profiles and clinical responses. Biomarker data were measured in pre-treatment biopsies and (when available) in archived tumor samples. Results pertaining to predictive biomarkers measured in pre-treatment biopsies are described herein.
Four types of assay (each set forth above) were used to assess the six primary biomarkers assessed in this study (EGFR, ErbB2, ErbB3, ErbB4, HRG and BTC):
In total, six primary biomarkers were measured using 15 assays. For the 5 chromogenic assays (qIHC and RNA-ISH), two different overall scores were used: composite score and top-10 score. Accordingly, 20 different variables were assessed at this stage. A Cox proportional hazard model was used to rank the biomarkers. This method determines if PFS varies with biomarker values differently in the treatment arm relative to the control arm. A P-value cutoff of 0.4 was used to determine which biomarkers would be prioritized for subsequent bivariate analyses.
Based on these two thresholds, a biomarker profile positive (BM+) subpopulation is defined for subsequent analyses as: (ErbB2 levels ≤log10 5.1) AND (HRG score ≥1) (“ErbB2 low” AND “HRG positive”). Accordingly, a biomarker profile negative (BM−) subpopulation is defined as (ErbB2 levels >log10 5.1) OR (HRG score <1) This definition results in a BM+prevalence of 34% in the clinical trial population.
In FIG. 8G (progression free survival at 10+ months) and FIG. 8H (overall survival at 10+ months), the treatment arm is represented by a blue line and the control arm is represented by a black line.

[2] = tested on: locally advanced or metastatic ER+ and/or PR+, HER2 negative breast cancer; test: Randomized, double-blind phase 2 trial of exemestane +/- MM-121, breast cancer; format: in vivo, human
[3] = tested on: EGFR-wild-type non-small cell lung cancer (NSCLC)
Source text: A group participating in the study was comprised of 132 patients with wild-type epidermal growth factor receptor (EGFR) who progressed on ≥1 platinum-based standard of care therapy and were EGFR tyrosine kinase inhibitor (TKI)-naïve. […] Data were collected at 10+ months.
Therefore, in this Example, Biomarker positive (BM+) is used interchangeably with Heregulin positive (HRG+). BM+ patients were defined as having detectable HRG mRNA by RNA-ISH (RNA in situ hybridization) as described above in Example 1.

ErbB3 = ErbB3 (Homo sapiens, UniProt P21860); test: Pre-clinical data and computational modeling: MM-121 potency versus ErbB2 level; settings: when ErbB2 levels rise above about 100,000 to about 200,000 receptors per cell
[4] = BM+ (heregulin+) patients, FIG. 11
[5] = group ErbB2 < 5.1 (qIHC) & HRG > -5

CC(=O)O[C@H]1C(=O)[C@@]2(C)[C@H]([C@H](OC(=O)c3ccccc3)[C@]3(O)C[C@H](OC(=O)[C@H](O)[C@@H](NC(=O)c4ccccc4)c4ccccc4)C(C)=C1C3(C)C)[C@]1(OC(C)=O)CO[C@@H]1C[C@@H]2O [paclitaxel, Paclitaxel, reference compound]
PFS of BM- (heregulin-) patients compared with BM+ (heregulin+) patients ([1]; patients treated with paclitaxel alone, FIG. 8I): much longer PFS

C=C1C[C@@H]2[C@H](CC[C@]3(C)C(=O)CC[C@@H]23)[C@@]2(C)C=CC(=O)C=C12 [exemestane, 6-methylenandrosta-1,4-diene-3,17-dione, reference compound]
PFS of BM- (heregulin-) patients compared with BM+ (heregulin+) patients ([2]; patients treated with exemestane alone, FIG. 10E): much longer PFS

C#Cc1cccc(Nc2ncnc3cc(OCCOC)c(OCCOC)cc23)c1 [erlotinib]
best overall response: complete response (CR) [3, 4]: none
best overall response: partial response (PR) [3, 4]: 6.7%
best overall response: progressive disease (PD) [3, 4]: 53.3%
PFS of BM- (heregulin-) patients compared with BM+ (heregulin+) patients ([3]; patients treated with erlotinib alone, FIG. 12C): much longer PFS

B1: MM-121: anti-ErbB3 monoclonal antibody having VH and VL sequences as shown in SEQ ID NOs: 1 and 2 (antibody, V domains shown)
VH: EVQLLESGGGLVQPGGSLRLSCAASGFTFSHYVMAWVRQAPGKGLEWVSSISSSGGWTLYADSVKGRFTISRDNSKNTLYLQMNSLRAEDTAVYYCTRGLKMATIFDYWGQGTLVTVSS
VL: QSALTQPASVSGSPGQSITISCTGTSSDVGSYNVVSWYQQHPGKAPKLIIYEVSQRPSGVSNRFSGSKSGNTASLTISGLQTEDEADYYCCSYAGSSIFVIFGGGTKVTVL
potency as a function of ErbB2 level (ErbB3): loses potency
estimated HR in the BM+ group, sensitivity analysis ([2]; Cox model with additive terms for treatment, biomarker groups and clinical covariates): 0.38
HR, BM population ([2]; MM-121+exemestane vs exemestane, no selection, N=115): 0.75
HR, BM negative ([2]; group ErbB2 < 5.1 (HCT)): 3.00
HR, BM population ([2]; group ErbB2 < 5.1 (HCT)): 0.82
HR, BM positive ([2]; group ErbB2 < 5.1 (HCT)): 0.62
HR, BM population ([2]; group ErbB2 < 5.1 (HCT) & HRG > -5, 55 patients): 0.66
HR, BM positive ([2]; group ErbB2 < 5.1 (HCT) & HRG > -5, PFS at about 60 weeks, N=17): 0.32
HR, BM negative ([2]; group ErbB2 < 5.1 (HCT) & HRG > -5, PFS at about 60 weeks, N=38): 0.89
HR, BM negative ([2]; group ErbB2 < 5.1 (qIHC)): 3.00
HR, BM population ([2]; group ErbB2 < 5.1 (qIHC)): 1.16
HR, BM positive ([2]; group ErbB2 < 5.1 (qIHC)): 0.84
HR, BM negative [2, 5]: 1.30
HR, BM population [2, 5]: 0.86
HR, BM positive [2, 5]: 0.32
HR, BM negative ([2]; group HRG > -5): 0.99
HR, BM positive ([2]; group HRG > -5): 0.35
HR, BM population ([2]; group HRG > -5 (RT-PCR), all patients with this biomarker): 0.68
HR (trt:ctrl) ([1]; BM+ (HER2 low & HRG+), subgroup ErbB4 score 0): 0.13
HR (trt:ctrl) ([1]; BM+, subgroup ErbB4 score >=1): 0.65
HR (trt:ctrl) ([1]; BM- (HER2 low & HRG+ not met), subgroup ErbB4 score 0): 1.05
HR (trt:ctrl) ([1]; BM-, subgroup ErbB3 score >=2): 0.86
cumulative HR ([1]; all patients with BM measurements, prevalence=100%): ≈ 1
HR (PFS, treatment vs control) ([1]; BM+ subpopulation (ErbB2 <=log10 5.1 AND HRG score >=1)): 0.37
HR (PFS, treatment vs control) ([1]; BM- subpopulation (ErbB2 >log10 5.1 OR HRG score <1)): 1.54
